Results on 1 molecule are retold here after US20150098955A1 (VIELA BIO, published 2015).

In assay [1] the target is T1, Murine CD40L (form not stated) (murine, UniProt P27548 112-260, limits assumed).
T1 construct: also called MuCD40L
T1 sequence (looked up): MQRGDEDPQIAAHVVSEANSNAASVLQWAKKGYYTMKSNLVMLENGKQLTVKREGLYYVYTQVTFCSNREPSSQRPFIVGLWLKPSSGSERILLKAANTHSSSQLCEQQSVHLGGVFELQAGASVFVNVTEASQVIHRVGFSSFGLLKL
Kind of assay: method not stated (figure legend).

The target of assay [2] is Murine CD40L on cells (D10.G4 / D10G4.1 cells; activated murine T cells) (murine) (UniProt P27548). As to the kind of experiment: cell-based or functional assay.
For assay [3], the target named is Murine MegaCD40L (Axxora, cat. ALX522120) (murine) (UniProt P27548). As to the kind of experiment: cell-based or functional assay.

B1: Clone M31 (affinity optimized variant of M13, murine CD40L-specific) (designed binder)
chain: IEVKDVTDTTALITWHDPSGYDFWCELTYGIKDVPGDRTTIDLPDHFHNYSIGNLKPDTEYEVSLICANDHGFDSYPAKETFTT
Regarding B1, the “fold affinity improvement over M13” value in assay [1] was ~20 fold. In assay [2], this molecule showed an IC50, inhibition of CD86 up regulation on CD19+ B cells (PBMC stimulated with D10.G4 cells) of 1.5 nM and a fold increase in potency in the PBMC assay over M13 of 20 fold. Also, the IC50, neutralization of murine CD40L-induced NFκB activity (luciferase reporter cells) in assay [3] is 1.6 nM.
